Results from patent US5891663.

Target: precursor of the polypeptide that induces IFN-γ production in immunocompetent cells (human)

## interleukin-1β converting enzyme (from UniProt P29466)
  conversion of the precursor into the active polypeptide; IFN-γ content (IU/ml) induced in KG-1 cells by the reaction mixture, with Western blot time course: 4000 IU/ml
